This is an account of results in IntAct's records for PubMed 25910212.

The labels stand for the following.
B1: Emerin (Homo sapiens), P50402 (parent)
chain: MDNYADLSDTELTTLLRRYNIPHGPVVGSTRRLYEKKIFEYETQRRRLSPPSSSAASSYSFSDLNSTRGDADMYDLPKKEDALLYQSKGYNDDYYEESYFTTRTYGEPESAGPSRAVRQSVTSFPDADAFHHQVHDDDLLSSSEEECKDRERPMYGRDSAYQSITHYRPVSASRSSLDLSYYPTSSSTSFMSSSSSSSSWLTRRAIRPENRAPGAGLGQDRQVPLWGQLLLFLVFVIVLFFIYHFMQAEEGNPF
partner: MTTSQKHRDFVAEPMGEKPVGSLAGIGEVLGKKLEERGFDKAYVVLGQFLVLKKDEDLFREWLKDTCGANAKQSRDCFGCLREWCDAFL
B2: Progranulin (Homo sapiens), P28799 (parent)
chain: MWTLVSWVALTAGLVAGTRCPDGQFCPVACCLDPGGASYSCCRPLLDKWPTTLSRHLGGPCQVDAHCSAGHSCIFTVSGTSSCCPFPEAVACGDGHHCCPRGFHCSADGRSCFQRSGNNSVGAIQCPDSQFECPDFSTCCVMVDGSWGCCPMPQASCCEDRVHCCPHGAFCDLVHTRCITPTGTHPLAKKLPAQRTNRAVALSSSVMCPDARSRCPDGSTCCELPSGKYGCCPMPNATCCSDHLHCCPQDTVCDLIQSKCLSKENATTDLLTKLPAHTVGDVKCDMEVSCPDGYTCCRLQSGAWGCCPFTQAVCCEDHIHCCPAGFTCDTQKGTCEQGPHQVPWMEKAPAHLSLPDPQALKRDVPCDNVSSCPSSDTCCQLTSGEWGCCPIPEAVCCSDHQHCCPQGYTCVAEGQCQRGSEIVAGLEKMPARRASLSHPRDIGCDQHTSCPVGQTCCPSLGGSWACCQLPHAVCCEDRQHCCPAGYTCNVKARSCEKEVVSAQPATFLARSPHVGVKDVECGEGHFCHDNQTCCRDNRQGWACCPYRQGVCCADRRHCCPAGFRCAARGTKCLRREAPRWDAPLRDPALRQLL
partner: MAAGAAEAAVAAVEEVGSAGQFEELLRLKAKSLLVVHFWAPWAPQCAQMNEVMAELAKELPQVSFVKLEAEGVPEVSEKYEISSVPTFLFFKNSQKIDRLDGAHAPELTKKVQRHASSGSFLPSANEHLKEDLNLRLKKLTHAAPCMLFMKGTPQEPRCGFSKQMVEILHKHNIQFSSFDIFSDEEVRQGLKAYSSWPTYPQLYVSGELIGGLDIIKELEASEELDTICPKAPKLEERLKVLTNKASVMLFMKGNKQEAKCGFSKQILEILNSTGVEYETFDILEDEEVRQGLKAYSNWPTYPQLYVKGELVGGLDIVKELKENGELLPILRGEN
B3: Sialidase-2 (Homo sapiens), Q9Y3R4 (parent)
chain: MASLPVLQKESVFQSGAHAYRIPALLYLPGQQSLLAFAEQRASKKDEHAELIVLRRGDYDAPTHQVQWQAQEVVAQARLDGHRSMNPCPLYDAQTGTLFLFFIAIPGQVTEQQQLQTRANVTRLCQVTSTDHGRTWSSPRDLTDAAIGPAYREWSTFAVGPGHCLQLHDRARSLVVPAYAYRKLHPIQRPIPSAFCFLSHDHGRTWARGHFVAQDTLECQVAEVETGEQRVVTLNARSHLRARVQAQSTNDGLDFQESQLVKKLVEPPPQGCQGSVISFPSPRSGPGSPAQWLLYTHPTHSWQRADLGAYLNPRPPAPEAWSEPVLLAKGSCAYSDLQSMGTGPDGSPLFGCLYEANDYEEIVFLMFTLKQAFPAEYLPQ
B4: Acetylcholine receptor subunit gamma (Homo sapiens), P07510-2 (parent)
chain: MHGGQGPLLLLLLLAVCLGAQGRNQEERLLADLMQNYDPNLRPAERDSDVVNVSLKLTLTNLISLNEREEALTTNVWIEMQWCDYRLRWDPRDYEGLWVLRVPSTMVWRPDIVLENKSQTYSTNEIDLQLSQEDGQTIEWIFIDPEAFTENGEWAIQHRPAKMLLDPAAPAQEAGHQKVVFYLLIQRKPLFYVINIIAPCVLISSVAILIHFLPAKAGGQKCTVAINVLLAQTVFLFLVAKKVPETSQAVPLISKYLTFLLVVTILIVVNAVVVLNVSLRSPHTHSMARGVRKVFLRLLPQLLRMHVRPLAPAAVQDTQSRLQNGSSGWSITTGEEVALCLPRSELLFQQWQRQGLVAAALEKLEKGPELGLSQFCGSLKQAAPAIQACVEACNLIACARHQQSHFDNGNEEWFLVGRVLDRVCFLAMLSLFICGTAGIFLMAHYNRVPALPFPGDPRPYLPSPD
partner: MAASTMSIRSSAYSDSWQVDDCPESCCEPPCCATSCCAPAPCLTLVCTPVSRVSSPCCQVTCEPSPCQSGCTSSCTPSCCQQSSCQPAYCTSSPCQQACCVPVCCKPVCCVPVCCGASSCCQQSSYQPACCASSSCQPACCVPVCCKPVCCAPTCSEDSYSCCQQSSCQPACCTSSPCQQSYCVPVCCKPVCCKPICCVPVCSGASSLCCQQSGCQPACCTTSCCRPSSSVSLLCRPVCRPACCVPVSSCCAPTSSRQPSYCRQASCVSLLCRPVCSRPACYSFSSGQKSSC
B5: Homeobox protein SIX1 (Homo sapiens), Q15475 (parent)
chain: MSMLPSFGFTQEQVACVCEVLQQGGNLERLGRFLWSLPACDHLHKNESVLKAKAVVAFHRGNFRELYKILESHQFSPHNHPKLQQLWLKAHYVEAEKLRGRPLGAVGKYRVRRKFPLPRTIWDGEETSYCFKEKSRGVLREWYAHNPYPSPREKRELAEATGLTTTQVSNWFKNRRQRDRAAEAKERENTENNNSSSNKQNQLSPLEGGKPLMSSSEEEFSPPQSPDQNSVLLLQGNMGHARSSNYSLPGLTASQPSHGLQTHQHQLQDSLLGPLTSSLVDLGS
partner: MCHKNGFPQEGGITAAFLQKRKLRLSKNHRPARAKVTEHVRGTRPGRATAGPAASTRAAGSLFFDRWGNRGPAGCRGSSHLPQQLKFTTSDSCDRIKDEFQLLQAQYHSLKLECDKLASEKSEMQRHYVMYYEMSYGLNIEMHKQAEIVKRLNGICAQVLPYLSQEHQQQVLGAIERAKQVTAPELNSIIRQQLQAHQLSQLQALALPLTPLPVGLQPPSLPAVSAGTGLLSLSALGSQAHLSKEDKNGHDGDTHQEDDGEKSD
B6: F-box only protein 7 (Homo sapiens), Q9Y3I1 (parent)
chain: MRLRVRLLKRTWPLEVPETEPTLGHLRSHLRQSLLCTWGYSSNTRFTITLNYKDPLTGDEETLASYGIVSGDLICLILQDDIPAPNIPSSTDSEHSSLQNNEQPSLATSSNQTSMQDEQPSDSFQGQAAQSGVWNDDSMLGPSQNFEAESIQDNAHMAEGTGFYPSEPMLCSESVEGQVPHSLETLYQSADCSDANDALIVLIHLLMLESGYIPQGTEAKALSMPEKWKLSGVYKLQYMHPLCEGSSATLTCVPLGNLIVVNATLKINNEIRSVKRLQLLPESFICKEKLGENVANIYKDLQKLSRLFKDQLVYPLLAFTRQALNLPDVFGLVVLPLELKLRIFRLLDVRSVLSLSAVCRDLFTASNDPLLWRFLYLRDFRDNTVRVQDTDWKELYRKRHIQRKESPKGRFVMLLPSSTHTIPFYPNPLHPRPFPSSRLPPGIIGGEYDQRPTLPYVGDPISSLIPGPGETPSQFPPLRPRFDPVGPLPGPNPILPGRGGPNDRFPFRPSRGRPTDGRLSFM
partner: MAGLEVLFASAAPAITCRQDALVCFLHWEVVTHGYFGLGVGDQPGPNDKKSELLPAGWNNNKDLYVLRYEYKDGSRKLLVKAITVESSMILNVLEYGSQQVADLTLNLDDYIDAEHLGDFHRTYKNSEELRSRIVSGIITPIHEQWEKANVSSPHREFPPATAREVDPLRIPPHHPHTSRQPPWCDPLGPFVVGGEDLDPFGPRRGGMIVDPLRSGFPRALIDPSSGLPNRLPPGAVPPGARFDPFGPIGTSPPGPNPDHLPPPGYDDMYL
B7: Ubiquitin-protein ligase (Homo sapiens), Q05086 (parent)
chain: MEKLHQCYWKSGEPQSDDIEASRMKRAAAKHLIERYYHQLTEGCGNEACTNEFCASCPTFLRMDNNAAAIKALELYKINAKLCDPHPSKKGASSAYLENSKGAPNNSCSEIKMNKKGARIDFKDVTYLTEEKVYEILELCREREDYSPLIRVIGRVFSSAEALVQSFRKVKQHTKEELKSLQAKDEDKDEDEKEKAACSAAAMEEDSEASSSRIGDSSQGDNNLQKLGPDDVSVDIDAIRRVYTRLLSNEKIETAFLNALVYLSPNVECDLTYHNVYSRDPNYLNLFIIVMENRNLHSPEYLEMALPLFCKAMSKLPLAAQGKLIRLWSKYNADQIRRMMETFQQLITYKVISNEFNSRNLVNDDDAIVAASKCLKMVYYANVVGGEVDTNHNEEDDEEPIPESSELTLQELLGEERRNKKGPRVDPLETELGVKTLDCRKPLIPFEEFINEPLNEVLEMDKDYTFFKVETENKFSFMTCPFILNAVTKNLGLYYDNRIRMYSERRITVLYSLVQGQQLNPYLRLKVRRDHIIDDALVRLEMIAMENPADLKKQLYVEFEGEQGVDEGGVSKEFFQLVVEEIFNPDIGMFTYDESTKLFWFNPSSFETEGQFTLIGIVLGLAIYNNCILDVHFPMVVYRKLMGKKGTFRDLGDSHPVLYQSLKDLLEYEGNVEDDMMITFQISQTDLFGNPMMYDLKENGDKIPITNENRKEFVNLYSDYILNKSVEKQFKAFRRGFHMVTNESPLKYLFRPEEIELLICGSRNLDFQALEETTEYDGGYTRDSVLIREFWEIVHSFTDEQKRLFLQFTTGTDRAPVGGLGKLKMIIAKNGPDTERLPTSHTCFNVLLLPEYSSKEKLKERLLKAITYAKGFGML
partner: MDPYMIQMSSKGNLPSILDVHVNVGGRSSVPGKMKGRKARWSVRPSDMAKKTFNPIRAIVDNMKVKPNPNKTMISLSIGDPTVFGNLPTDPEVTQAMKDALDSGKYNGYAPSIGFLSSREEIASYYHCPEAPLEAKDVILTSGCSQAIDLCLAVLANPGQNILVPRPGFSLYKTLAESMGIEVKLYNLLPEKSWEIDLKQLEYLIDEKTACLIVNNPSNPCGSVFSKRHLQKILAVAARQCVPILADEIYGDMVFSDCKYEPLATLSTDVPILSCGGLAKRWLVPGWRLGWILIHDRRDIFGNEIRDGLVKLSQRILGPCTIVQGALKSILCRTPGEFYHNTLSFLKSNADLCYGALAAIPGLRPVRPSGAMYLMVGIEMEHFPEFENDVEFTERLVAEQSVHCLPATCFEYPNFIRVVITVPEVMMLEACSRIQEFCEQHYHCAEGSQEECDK
B8: Ribose-phosphate pyrophosphokinase 1 (Homo sapiens), P60891 (parent)
chain: MPNIKIFSGSSHQDLSQKIADRLGLELGKVVTKKFSNQETCVEIGESVRGEDVYIVQSGCGEINDNLMELLIMINACKIASASRVTAVIPCFPYARQDKKDKSRAPISAKLVANMLSVAGADHIITMDLHASQIQGFFDIPVDNLYAEPAVLKWIRENISEWRNCTIVSPDAGGAKRVTSIADRLNVDFALIHKERKKANEVDRMVLVGDVKDRVAILVDDMADTCGTICHAADKLLSAGATRVYAILTHGIFSGPAISRINNACFEAVVVTNTIPQEDKMKHCSKIQVIDISMILAEAIRRTHNGESVSYLFSHVPL
partner: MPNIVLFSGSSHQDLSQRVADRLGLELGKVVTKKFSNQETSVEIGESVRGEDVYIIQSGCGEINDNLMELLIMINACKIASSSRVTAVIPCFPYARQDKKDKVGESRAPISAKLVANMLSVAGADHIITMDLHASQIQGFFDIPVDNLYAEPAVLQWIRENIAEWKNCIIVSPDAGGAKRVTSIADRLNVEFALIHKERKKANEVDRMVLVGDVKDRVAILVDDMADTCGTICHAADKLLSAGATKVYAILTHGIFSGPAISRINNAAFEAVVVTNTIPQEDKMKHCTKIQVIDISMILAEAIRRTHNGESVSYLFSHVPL

The variants in one experiment derive from B1. Particulars: with baf_human BANF1, O75531.
In the case of D72V, the “effect of a mutation on the interaction” value is recorded as “with no effect”.

With S54F, the “effect of a mutation on the interaction” value is reported as “with no effect”.

Take P183T: the “effect of a mutation on the interaction” value was “with no effect”.

Take P183H: the “effect of a mutation on the interaction” value is recorded as “with no effect”.

Variants of B2 are the subject of the next experiment. Particulars: with glrx3_human GLRX3, O76003.
Take A9D: the “effect of a mutation on the interaction” value is given as “disrupting interaction strength”.

P451L: the “effect of a mutation on the interaction” value is recorded as “disrupting interaction strength”.

As for P248L, the “effect of a mutation on the interaction” value is “with no effect”.

Consider R432C, for which the “effect of a mutation on the interaction” value is on record as “disrupting interaction strength”.

Variants of B3 are the subject of another experiment. Particulars: with nt2na_human NOTCH2NLA.
In the case of R41Q, the “effect of a mutation on the interaction” value is listed as “with no effect”.

A further experiment covers variants of B4. Particulars: with kr109_human KRTAP10-9, P60411.
Consider R86C, for which the “effect of a mutation on the interaction” value is recorded as “disrupting interaction strength”.

For V107G, the “effect of a mutation on the interaction” value is reported as “disrupting interaction strength”.

On to R187C, for which the “effect of a mutation on the interaction” value is on record as “disrupting interaction strength”.

The next experiment covers variants of B5. Particulars: with TLE5, Q08117-2.
On to R112C, for which the “effect of a mutation on the interaction” value is listed as “with no effect”.

Variants of B6 are the subject of a further experiment. Particulars: with psmf1_human PSMF1, Q92530.
On to T22M, for which the “effect of a mutation on the interaction” value is listed as “disrupting interaction strength”.

The variants in the next experiment derive from B7. Particulars: with atty_human TAT.
Turning to R529C, the “effect of a mutation on the interaction” value is on record as “disrupting interaction strength”.

Consider I827K, for which the “effect of a mutation on the interaction” value is “disrupting interaction strength”.

With S372P, the “effect of a mutation on the interaction” value is “disrupting interaction strength”.

The variants in another experiment derive from B8. Particulars: with PRPS2, P11908-2.
N114S: the “effect of a mutation on the interaction” value is reported as “with no effect”.

As to D183H, the “effect of a mutation on the interaction” value is “with no effect”.

With D52H, the “effect of a mutation on the interaction” value is reported as “with no effect”.
